Experimental data published in the supplement of paper PMC9112550, “Optimization of the antimicrobial peptide Bac7 by deep mutational scanning” (BMC Biology, 2022).

Test system: Escherichia coli TOP10
Assay: shrunken log2 fold change of peptide-encoding DNA abundance (4.5 h post-induction vs induction); higher = less antimicrobial activity (less host growth inhibition)
Conditions: time post-induction: 4.5 h; library: site-saturation at positions 5, 18, 19, 20
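Further: peptides expressed intracellularly from a pBAD plasmid library in pooled LB shake-flask culture, induced with 0.3% L-arabinose, DNA abundance read by NGS, three biological replicates, DESeq2 with apeglm shrinkage.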

Sequence	shrunken log2 fold change
RRIRCRPPRLPRPRPRPYCFPRP	-0.783
RRIRWRPPRLPRPRPRPNNHPRP	-0.588
RRIRTRPPRLPRPRPRPNSRPRP	-0.0848
RRIRPRPPRLPRPRPRPCWGPRP	-0.0769
RRIRRRPPRLPRPRPRPCCDPRP	0.583
RRIRQRPPRLPRPRPRPHSAPRP	-0.0562
RRIRPRPPRLPRPRPRPMTKPRP	0.0497
RRIRPRPPRLPRPRPRPCLAPRP	-0.109
RRIRFRPPRLPRPRPRPRTLPRP	0.165
RRIRNRPPRLPRPRPRPDFAPRP	-0.0617
RRIRWRPPRLPRPRPRPPRPPRP	0.859
RRIRSRPPRLPRPRPRPFIWPRP	-0.297
RRIRGRPPRLPRPRPRPCLGPRP	0.0741
RRIRSRPPRLPRPRPRPGYGPRP	-0.0163
RRIRCRPPRLPRPRPRPQMAPRP	-0.117
RRIRHRPPRLPRPRPRPNELPRP	0.031
RRIRMRPPRLPRPRPRPGESPRP	1.29
RRIRRRPPRLPRPRPRPRMMPRP	0.351
RRIRARPPRLPRPRPRPEEEPRP	0.178
RRIRHRPPRLPRPRPRPQKHPRP	-0.992
RRIRNRPPRLPRPRPRPVPVPRP	-0.0667
RRIRQRPPRLPRPRPRPMFYPRP	-0.503
RRIRFRPPRLPRPRPRPGYCPRP	-0.321
RRIRLRPPRLPRPRPRPGCPPRP	0.0643
RRIRYRPPRLPRPRPRPSKPPRP	-0.833

Sequence	shrunken log2 fold change
RRIRTRPPRLPRPRPRPQRNPRP	-0.115
RRIRDRPPRLPRPRPRPSWYPRP	0.0397
RRIRDRPPRLPRPRPRPPRKPRP	0.758
RRIRWRPPRLPRPRPRPIDGPRP	0.19
RRIRCRPPRLPRPRPRPYVIPRP	-0.381
RRIRKRPPRLPRPRPRPLKYPRP	0.072
RRIRFRPPRLPRPRPRPGLFPRP	-0.143
RRIRQRPPRLPRPRPRPMQCPRP	-0.409
RRIRSRPPRLPRPRPRPHGEPRP	-0.0153
RRIRVRPPRLPRPRPRPHGDPRP	0.00703
RRIRTRPPRLPRPRPRPDMIPRP	0.00205
RRIRVRPPRLPRPRPRPSINPRP	-0.243
RRIRTRPPRLPRPRPRPHACPRP	0.158
RRIRERPPRLPRPRPRPDNMPRP	-0.2
RRIRERPPRLPRPRPRPFDHPRP	0.0195
RRIRVRPPRLPRPRPRPSFCPRP	0.212
RRIRNRPPRLPRPRPRPNNNPRP	-0.867
RRIRFRPPRLPRPRPRPPMMPRP	-0.0466
RRIRGRPPRLPRPRPRPDGAPRP	1.03
RRIRQRPPRLPRPRPRPGNNPRP	-0.54
RRIRNRPPRLPRPRPRPPSYPRP	-0.14
RRIRQRPPRLPRPRPRPDDQPRP	0.164
RRIRGRPPRLPRPRPRPCMSPRP	0.151
RRIRIRPPRLPRPRPRPPDEPRP	-0.0174
RRIRPRPPRLPRPRPRPTNFPRP	0.221

Sequence	shrunken log2 fold change
RRIRIRPPRLPRPRPRPCACPRP	-0.889
RRIRWRPPRLPRPRPRPWWKPRP	-0.00743
RRIRIRPPRLPRPRPRPNYAPRP	-0.381
RRIRDRPPRLPRPRPRPDCWPRP	1.65
RRIRSRPPRLPRPRPRPGDNPRP	0.0473
RRIRHRPPRLPRPRPRPNEDPRP	-0.081
RRIRFRPPRLPRPRPRPQWIPRP	-0.148
RRIRSRPPRLPRPRPRPGFCPRP	0.108
RRIRHRPPRLPRPRPRPIQLPRP	0.128
RRIRGRPPRLPRPRPRPGDSPRP	0.276
RRIRGRPPRLPRPRPRPIMLPRP	2.36
RRIRDRPPRLPRPRPRPMSGPRP	-0.0837
RRIRVRPPRLPRPRPRPNVEPRP	-0.0461
RRIRWRPPRLPRPRPRPHMKPRP	-0.204
RRIRMRPPRLPRPRPRPSMSPRP	-0.024
RRIRNRPPRLPRPRPRPAFYPRP	-0.065
RRIRDRPPRLPRPRPRPCGSPRP	0.0136
RRIRSRPPRLPRPRPRPCIKPRP	-0.0801
RRIRARPPRLPRPRPRPQMVPRP	-0.0332
RRIRTRPPRLPRPRPRPIAHPRP	0.00363
RRIRMRPPRLPRPRPRPVPRPRP	0.606
RRIRGRPPRLPRPRPRPDDPPRP	0.0369
RRIRWRPPRLPRPRPRPPQHPRP	0.275
RRIRRRPPRLPRPRPRPGWKPRP	0.136
RRIRPRPPRLPRPRPRPAENPRP	-0.197

Sequence	shrunken log2 fold change
RRIRFRPPRLPRPRPRPVLCPRP	-0.221
RRIRVRPPRLPRPRPRPVQTPRP	0.0297
RRIRTRPPRLPRPRPRPYKTPRP	-0.315
RRIRPRPPRLPRPRPRPFQNPRP	-0.445
RRIRYRPPRLPRPRPRPYTVPRP	-0.00544
RRIRARPPRLPRPRPRPYEIPRP	-0.059
RRIRSRPPRLPRPRPRPDCVPRP	-0.0759
RRIRTRPPRLPRPRPRPYENPRP	-0.0748
RRIRNRPPRLPRPRPRPIFYPRP	0.00954
RRIRCRPPRLPRPRPRPVNGPRP	1.74
RRIRYRPPRLPRPRPRPEGIPRP	-0.0155
RRIRKRPPRLPRPRPRPSYQPRP	-0.52
RRIRTRPPRLPRPRPRPNILPRP	-0.484
RRIRRRPPRLPRPRPRPCQLPRP	-0.231
RRIRCRPPRLPRPRPRPEKHPRP	0.00607
RRIRRRPPRLPRPRPRPSQSPRP	0.121
RRIRVRPPRLPRPRPRPYIAPRP	-0.608
RRIRRRPPRLPRPRPRPHRIPRP	-0.279
RRIRWRPPRLPRPRPRPTMWPRP	0.615
RRIRPRPPRLPRPRPRPCPMPRP	-0.156
RRIRARPPRLPRPRPRPDCHPRP	1.05
RRIRCRPPRLPRPRPRPTIMPRP	-0.562
RRIRFRPPRLPRPRPRPNARPRP	0.241
RRIRTRPPRLPRPRPRPATRPRP	0.0996
RRIRLRPPRLPRPRPRPWYMPRP	-0.0481

Sequence	shrunken log2 fold change
RRIRSRPPRLPRPRPRPWLWPRP	1.45
RRIRERPPRLPRPRPRPQKKPRP	0.0196
RRIRDRPPRLPRPRPRPQPQPRP	0.517
RRIRCRPPRLPRPRPRPKDMPRP	-0.531
RRIRGRPPRLPRPRPRPDLKPRP	0.0305
RRIRKRPPRLPRPRPRPIVHPRP	-0.42
RRIRGRPPRLPRPRPRPVMDPRP	0.96
RRIRSRPPRLPRPRPRPKMAPRP	-0.13
RRIRYRPPRLPRPRPRPGCMPRP	-0.546
RRIRNRPPRLPRPRPRPMRIPRP	0.134
RRIRCRPPRLPRPRPRPLFGPRP	-0.0673
RRIRCRPPRLPRPRPRPPGPPRP	0.337
RRIRVRPPRLPRPRPRPTMQPRP	0.158
RRIRKRPPRLPRPRPRPWKLPRP	-0.14
RRIRFRPPRLPRPRPRPPGQPRP	1
RRIRGRPPRLPRPRPRPVEDPRP	0.0393
RRIRMRPPRLPRPRPRPKHYPRP	-0.0523
RRIRHRPPRLPRPRPRPHAMPRP	-0.00419
RRIRGRPPRLPRPRPRPGGIPRP	0.402
RRIRPRPPRLPRPRPRPDSTPRP	-0.679
RRIRLRPPRLPRPRPRPDLPPRP	-0.0128
RRIRGRPPRLPRPRPRPMQEPRP	0.161
RRIRRRPPRLPRPRPRPKAWPRP	0.0767
RRIRSRPPRLPRPRPRPYEEPRP	-0.932
RRIRDRPPRLPRPRPRPSSNPRP	-0.148

Sequence	shrunken log2 fold change
RRIRERPPRLPRPRPRPMPFPRP	0.00529
RRIRYRPPRLPRPRPRPAINPRP	-0.051
RRIRVRPPRLPRPRPRPEIWPRP	0.223
RRIRDRPPRLPRPRPRPRTMPRP	-0.0423
RRIRLRPPRLPRPRPRPKMGPRP	0.0108
RRIRRRPPRLPRPRPRPNNNPRP	-0.426
RRIRFRPPRLPRPRPRPVLHPRP	-0.376
RRIRFRPPRLPRPRPRPRMPPRP	0.145
RRIRERPPRLPRPRPRPPIHPRP	-0.502
RRIRYRPPRLPRPRPRPITLPRP	-0.323
RRIRIRPPRLPRPRPRPMITPRP	-0.616
RRIRNRPPRLPRPRPRPDQFPRP	-0.0466
RRIRSRPPRLPRPRPRPTRCPRP	0.264
RRIRRRPPRLPRPRPRPQARPRP	0.246
RRIRERPPRLPRPRPRPKDVPRP	-0.152
RRIRDRPPRLPRPRPRPTAKPRP	-0.00144
RRIRTRPPRLPRPRPRPMGKPRP	0.0179
RRIRQRPPRLPRPRPRPYITPRP	-0.0324
RRIRMRPPRLPRPRPRPDYCPRP	-0.369
RRIRHRPPRLPRPRPRPCQTPRP	-0.0148
RRIRPRPPRLPRPRPRPCIKPRP	-0.441
RRIRNRPPRLPRPRPRPCFSPRP	-0.378
RRIRARPPRLPRPRPRPSPMPRP	0.173
RRIRQRPPRLPRPRPRPNSSPRP	-1.14
RRIRLRPPRLPRPRPRPDEEPRP	0.138
